# Ends that are not written are not given here.
# Key:
# [1] = molecular target: AVR1674 (LFG2 3F3:3H9:2C10:4B10); experiment: biolayer interferometry (Octet), follow-up experiment, 4-point titration of mAb LFG2 against the peptide
# [2] = molecular target: AVR1674 (LFG2 3F3:3H9:2C10:4B10); experiment: biolayer interferometry (Octet), biotinylated peptide on streptavidin tips, LFG2:4B10 mAb in solution, 1:1 Langmuir fit
# [3] = molecular target: AVR1674 (LFG2 3F3:3H9:2C10:4B10); experiment: biolayer interferometry (Octet), biotinylated peptide on streptavidin tips, LFG2:4B10 mAb at 500 nM
# [4] = molecular target: Bacillus anthracis lethal factor (recombinant LF) (Bacillus anthracis) (UniProt P15917); experiment: immunoblot of denatured recombinant LF
# Chain of UniProt P15917 (P15917 34-809 limits assumed): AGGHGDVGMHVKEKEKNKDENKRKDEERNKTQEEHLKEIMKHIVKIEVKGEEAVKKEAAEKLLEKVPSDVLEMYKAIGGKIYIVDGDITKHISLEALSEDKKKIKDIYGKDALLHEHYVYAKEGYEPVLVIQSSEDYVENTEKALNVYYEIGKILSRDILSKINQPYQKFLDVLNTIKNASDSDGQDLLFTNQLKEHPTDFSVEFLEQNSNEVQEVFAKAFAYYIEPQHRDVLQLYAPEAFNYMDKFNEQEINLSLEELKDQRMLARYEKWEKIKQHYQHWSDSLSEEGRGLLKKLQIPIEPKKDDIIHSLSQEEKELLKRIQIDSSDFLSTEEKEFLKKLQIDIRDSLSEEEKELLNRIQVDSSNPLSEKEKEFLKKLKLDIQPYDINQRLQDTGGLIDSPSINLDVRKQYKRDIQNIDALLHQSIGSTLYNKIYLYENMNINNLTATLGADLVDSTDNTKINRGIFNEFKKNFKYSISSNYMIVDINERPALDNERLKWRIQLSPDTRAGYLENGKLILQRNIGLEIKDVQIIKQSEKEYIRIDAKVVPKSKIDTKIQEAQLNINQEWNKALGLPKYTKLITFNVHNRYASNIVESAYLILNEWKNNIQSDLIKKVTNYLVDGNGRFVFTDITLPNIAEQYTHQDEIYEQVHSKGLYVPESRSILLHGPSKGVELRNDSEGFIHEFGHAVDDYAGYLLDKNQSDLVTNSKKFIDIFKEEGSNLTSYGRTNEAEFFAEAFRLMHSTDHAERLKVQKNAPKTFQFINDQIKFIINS
Binder,Kd [1] [nM],Kd [2] [nM],Response R [3] [nm],amount of LF detected by immunoblot [4] [ng]
TFKDEIGGGSK-biotin […-biotin (SEQ ID NO: 25)],9.97,13.9,4.84,–
TFKDAIGGGSK-biotin […-biotin (SEQ ID NO: 30)],–,24.5,1.01,–
TFKDEAGGGSK-biotin […-biotin (SEQ ID NO: 31)],–,16.4,5.29,–
THKDEIGGGSK-biotin […-biotin (SEQ ID NO: 36)],–,60,2.37,–
TFQDEIGGGSK-biotin […-biotin (SEQ ID NO: 37)],–,34.4,1.34,–
"AVR1674 (LFG2 3F3:3H9:2C10:4B10) (antibody, V domains shown) VH: EVQLQVSGAELVKPGASVRLSCKASGYTFTSYYIYWVKQRPGQGLEWIGDINPSDGDTDFNEKFKSKATLTVDKSSSTAYMQLSSLTSEDSAVYYCTRSRGGFAYWGQGTLVTVSA VL: SHGDQASISSRSSQSIVHSNGNTYLEWYLQKPAQSPKLLIFKVSNRFSGVPDRFSRSGSGTDFTLKISRVEAEDLGIYYCSQGSHVPWTFGGGTKL",–,–,–,< 30

# From patent publication US20160272698A1
